# Literature values, collected in paper PMC3721222.
# Read-outs that look alike come from different tables or passages of the source.
# Tests used:
# Trypsin (Bos taurus) [1] = molecular target: Trypsin (Bos taurus) (UniProt P00760)
# [2] = molecular target: Chymotrypsin (Bos taurus) (UniProt P00766)
# Trypsin (Bos taurus) [3] = molecular target: Trypsin (Bos taurus) (UniProt P00760); remark: listed apart in the source
# Plasmin (Homo sapiens) [4] = molecular target: Plasmin (Homo sapiens) (UniProt P00747)
# [5] = molecular target: Subtilisin A (Bacillus licheniformis) (UniProt P00780)
# [6] = molecular target: Neutrophil elastase (Homo sapiens) (UniProt P08246)
# [7] = molecular target: Pancreatic elastase (Sus scrofa) (UniProt P00772)
# [8] = molecular target: Chymotrypsin (Bos taurus) (UniProt P00766); remark: listed apart in the source
# [9] = molecular target: Proteinase K (Parengyodontium album) (UniProt P06873)
# Trypsin (Bos taurus) [10] = molecular target: Trypsin (Bos taurus) (UniProt P00760); remark: listed apart in the source
# [11] = molecular target: Chymotrypsin (Bos taurus) (UniProt P00766); remark: listed apart in the source
# Trypsin (Bos taurus) [12] = molecular target: Trypsin (Bos taurus) (UniProt P00760); remark: listed apart in the source
# Thrombin (Homo sapiens) = Thrombin (Homo sapiens) (UniProt P00734)
# [13] = molecular target: Chymotrypsin (Bos taurus) (UniProt P00766); remark: listed apart in the source
# Trypsin (Bos taurus) [14] = molecular target: Trypsin (Bos taurus) (UniProt P00760); remark: listed apart in the source
# Plasmin (Homo sapiens) [15] = molecular target: Plasmin (Homo sapiens) (UniProt P00747); remark: listed apart in the source
# [16] = molecular target: Chymotrypsin (Bos taurus) (UniProt P00766); remark: listed apart in the source
# Trypsin (Bos taurus) [17] = molecular target: Trypsin (Bos taurus) (UniProt P00760); remark: listed apart in the source
# Trypsin (Bos taurus) [18] = molecular target: Trypsin (Bos taurus) (UniProt P00760); remark: listed apart in the source
# Plasmin (Homo sapiens) [19] = molecular target: Plasmin (Homo sapiens) (UniProt P00747); remark: listed apart in the source
# [20] = molecular target: Plasma kallikrein (Homo sapiens) (UniProt P03952)
# [21] = molecular target: alpha-Factor XIIa (Homo sapiens) (UniProt P00748)
# Trypsin (Bos taurus) [22] = molecular target: Trypsin (Bos taurus) (UniProt P00760); remark: listed apart in the source
# Kv1.2 = Kv1.2 (UniProt P16389)
# Kv1.6 = Kv1.6 (UniProt P17658)
# Kv1.1 = Kv1.1 (UniProt Q09470)
# UniProt Q09470, sequence (Q09470 whole entry): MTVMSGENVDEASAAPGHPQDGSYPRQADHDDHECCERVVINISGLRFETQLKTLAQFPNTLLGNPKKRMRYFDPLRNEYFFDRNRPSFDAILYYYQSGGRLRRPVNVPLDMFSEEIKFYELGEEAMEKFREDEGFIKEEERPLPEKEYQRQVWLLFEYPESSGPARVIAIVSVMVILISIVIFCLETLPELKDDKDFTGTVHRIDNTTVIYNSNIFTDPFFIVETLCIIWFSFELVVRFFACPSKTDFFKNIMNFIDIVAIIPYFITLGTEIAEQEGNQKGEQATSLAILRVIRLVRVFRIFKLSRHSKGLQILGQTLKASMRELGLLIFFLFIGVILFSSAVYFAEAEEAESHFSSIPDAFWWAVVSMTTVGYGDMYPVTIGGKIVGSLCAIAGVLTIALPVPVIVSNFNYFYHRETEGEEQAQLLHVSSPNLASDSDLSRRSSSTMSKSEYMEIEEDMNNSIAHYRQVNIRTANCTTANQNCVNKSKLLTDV
# UniProt P00760, sequence (P00760 149-246): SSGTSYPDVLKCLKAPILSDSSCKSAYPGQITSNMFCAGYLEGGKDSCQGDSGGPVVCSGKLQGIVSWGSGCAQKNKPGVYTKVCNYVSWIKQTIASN
# UniProt P00747, sequence (P00747 581-810): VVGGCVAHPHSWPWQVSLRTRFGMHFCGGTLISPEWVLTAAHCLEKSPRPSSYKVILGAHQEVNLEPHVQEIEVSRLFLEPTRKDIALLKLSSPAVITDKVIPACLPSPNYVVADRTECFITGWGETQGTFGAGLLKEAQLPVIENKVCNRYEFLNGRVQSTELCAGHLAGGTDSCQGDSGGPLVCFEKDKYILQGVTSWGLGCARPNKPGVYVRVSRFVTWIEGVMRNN
# UniProt P16389, sequence (P16389 whole entry): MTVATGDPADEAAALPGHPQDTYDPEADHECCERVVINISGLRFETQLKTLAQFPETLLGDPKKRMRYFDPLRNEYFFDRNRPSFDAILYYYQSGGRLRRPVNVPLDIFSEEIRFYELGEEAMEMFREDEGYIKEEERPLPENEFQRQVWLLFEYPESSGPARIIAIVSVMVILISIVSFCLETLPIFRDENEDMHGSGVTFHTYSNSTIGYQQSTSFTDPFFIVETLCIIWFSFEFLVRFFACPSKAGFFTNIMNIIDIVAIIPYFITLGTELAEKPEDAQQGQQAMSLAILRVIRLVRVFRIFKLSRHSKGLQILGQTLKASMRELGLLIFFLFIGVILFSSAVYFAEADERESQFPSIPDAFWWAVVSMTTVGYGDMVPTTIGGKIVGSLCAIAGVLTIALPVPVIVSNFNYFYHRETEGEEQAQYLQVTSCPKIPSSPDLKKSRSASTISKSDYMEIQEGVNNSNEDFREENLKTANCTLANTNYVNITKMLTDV
# UniProt P00772, sequence (P00772 27-266): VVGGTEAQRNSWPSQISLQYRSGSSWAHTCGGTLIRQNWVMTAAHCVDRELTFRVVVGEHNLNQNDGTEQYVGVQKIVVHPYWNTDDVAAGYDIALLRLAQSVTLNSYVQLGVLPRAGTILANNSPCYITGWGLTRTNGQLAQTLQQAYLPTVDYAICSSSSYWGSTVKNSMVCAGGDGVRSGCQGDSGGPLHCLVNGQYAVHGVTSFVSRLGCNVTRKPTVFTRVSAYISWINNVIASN
# UniProt P00748, sequence (P00748 20-372, chain 1 of 2): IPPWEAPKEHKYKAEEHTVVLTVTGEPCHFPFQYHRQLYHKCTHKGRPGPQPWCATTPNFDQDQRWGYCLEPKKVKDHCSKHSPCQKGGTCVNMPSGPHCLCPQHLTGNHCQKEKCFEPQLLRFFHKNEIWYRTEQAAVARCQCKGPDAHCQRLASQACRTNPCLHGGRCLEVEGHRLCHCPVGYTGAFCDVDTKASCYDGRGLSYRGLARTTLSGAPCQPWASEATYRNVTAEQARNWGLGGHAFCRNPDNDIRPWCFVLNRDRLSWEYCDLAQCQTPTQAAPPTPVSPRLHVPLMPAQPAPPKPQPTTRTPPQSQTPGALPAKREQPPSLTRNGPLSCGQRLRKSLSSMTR
# UniProt P00748, sequence (P00748 373-615, chain 2 of 2): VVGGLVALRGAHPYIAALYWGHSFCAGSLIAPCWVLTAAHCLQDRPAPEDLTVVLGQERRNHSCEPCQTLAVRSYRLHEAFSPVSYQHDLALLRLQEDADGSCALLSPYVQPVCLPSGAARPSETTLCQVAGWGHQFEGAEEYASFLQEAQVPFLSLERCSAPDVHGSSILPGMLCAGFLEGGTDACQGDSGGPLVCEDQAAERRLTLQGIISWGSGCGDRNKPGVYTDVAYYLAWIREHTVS
# UniProt P03952, sequence (P03952 391-638): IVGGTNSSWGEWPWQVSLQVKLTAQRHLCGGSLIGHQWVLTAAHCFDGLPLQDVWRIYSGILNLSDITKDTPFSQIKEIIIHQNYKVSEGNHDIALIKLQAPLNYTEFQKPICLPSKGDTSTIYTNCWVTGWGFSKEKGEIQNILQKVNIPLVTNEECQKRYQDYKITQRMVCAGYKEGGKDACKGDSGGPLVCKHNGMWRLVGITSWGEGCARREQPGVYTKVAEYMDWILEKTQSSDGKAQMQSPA
# UniProt P17658, sequence (P17658 whole entry): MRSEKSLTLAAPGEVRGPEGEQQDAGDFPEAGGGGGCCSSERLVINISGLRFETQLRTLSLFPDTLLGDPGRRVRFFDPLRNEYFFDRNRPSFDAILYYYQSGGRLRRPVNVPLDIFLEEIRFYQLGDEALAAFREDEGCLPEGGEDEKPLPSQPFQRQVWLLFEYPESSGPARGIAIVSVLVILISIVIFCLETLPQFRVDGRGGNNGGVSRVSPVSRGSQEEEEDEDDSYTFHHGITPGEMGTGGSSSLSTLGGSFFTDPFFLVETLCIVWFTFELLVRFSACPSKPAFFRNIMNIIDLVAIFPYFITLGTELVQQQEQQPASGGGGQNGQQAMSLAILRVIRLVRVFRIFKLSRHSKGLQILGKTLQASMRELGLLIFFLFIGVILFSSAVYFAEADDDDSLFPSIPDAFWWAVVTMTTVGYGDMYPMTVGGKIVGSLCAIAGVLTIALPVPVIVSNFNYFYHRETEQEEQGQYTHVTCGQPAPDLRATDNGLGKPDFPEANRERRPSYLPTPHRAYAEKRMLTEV
# UniProt P08246, sequence (P08246 30-267): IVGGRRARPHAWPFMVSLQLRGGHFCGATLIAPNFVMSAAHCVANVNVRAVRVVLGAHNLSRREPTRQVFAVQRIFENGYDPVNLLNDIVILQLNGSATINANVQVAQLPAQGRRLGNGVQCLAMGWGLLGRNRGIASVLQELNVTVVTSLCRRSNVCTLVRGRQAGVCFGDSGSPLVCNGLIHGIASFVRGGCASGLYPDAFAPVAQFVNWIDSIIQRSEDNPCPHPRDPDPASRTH
# UniProt P06873, sequence (P06873 106-384): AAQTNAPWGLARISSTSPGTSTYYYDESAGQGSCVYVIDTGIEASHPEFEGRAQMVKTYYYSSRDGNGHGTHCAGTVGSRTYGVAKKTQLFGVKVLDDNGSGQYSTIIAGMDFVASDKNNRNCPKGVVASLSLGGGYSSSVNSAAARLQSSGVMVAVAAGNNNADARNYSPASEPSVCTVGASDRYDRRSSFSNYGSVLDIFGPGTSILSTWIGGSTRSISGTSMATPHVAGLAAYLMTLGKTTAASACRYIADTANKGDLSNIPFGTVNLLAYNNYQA
# UniProt P00780, sequence (P00780 106-379): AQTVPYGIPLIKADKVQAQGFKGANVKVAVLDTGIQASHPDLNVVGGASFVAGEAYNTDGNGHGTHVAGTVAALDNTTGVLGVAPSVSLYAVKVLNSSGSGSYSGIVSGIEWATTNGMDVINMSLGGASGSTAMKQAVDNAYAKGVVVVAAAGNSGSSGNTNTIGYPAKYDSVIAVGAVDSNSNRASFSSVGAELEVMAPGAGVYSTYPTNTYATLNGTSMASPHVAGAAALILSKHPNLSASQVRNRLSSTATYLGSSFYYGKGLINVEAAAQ
substance,measurement,setting,value
HWTX-XI (from UniProt P68425),Kd,Trypsin (Bos taurus) [1],0.23 nM
BBPTI-1 (from UniProt A8Y7P1),Ki,[2],4.77 nM
Textilinin-1 (from UniProt Q90WA1),Ki,Trypsin (Bos taurus) [3],0.76 nM
same,Ki,Plasmin (Homo sapiens) [4],0.49 nM
AvCI (from UniProt L7X735),Ki,[5],20.5 nM
same,Ki,[6],8.74 nM
same,Ki,[7],11.3 nM
same,Ki,[8],49.9 nM
same,Ki,[9],65.4 nM
OH-TCI (recombinant) (from UniProt B6RLX2),Ki,Trypsin (Bos taurus) [10],391 nM
same,Ki,[11],84.6 nM
Bicolin (from UniProt C0LNR2),Ki,Trypsin (Bos taurus) [12],550 nM
same,Ki,Thrombin (Homo sapiens),26000 nM
Oh11-1 (from UniProt P82966),Ki,[13],3520 nM
Pr-mulgin 2 (from UniProt E7FL12),Ki,Trypsin (Bos taurus) [14],5 nM
same,Ki,Plasmin (Homo sapiens) [15],40 nM
same,Ki,[16],40 nM
rBmKTT-3 (from UniProt P0DJ47),Kd,Trypsin (Bos taurus) [17],760 nM
Pr-mulgin 3 (from UniProt E7FL13),Ki,Trypsin (Bos taurus) [18],5 nM
same,Ki,Plasmin (Homo sapiens) [19],100 nM
TSPI (from UniProt B7S4N9),Ki,[20],0.057 nM
same,Ki,[21],2380 nM
APEKTx1 (from UniProt P86862),Kd,Trypsin (Bos taurus) [22],124 nM
α-dendrotoxin (from UniProt P00980),Kd,Kv1.2,< 20 nM
same,Kd,Kv1.6,< 20 nM
same,Kd,Kv1.1,< 20 nM
